Residues, ends and D or L forms follow the SMILES beside them.
Key:
[1] = target: T1, binding of p85 to HGF/SF receptor (Bos taurus, UniProt P23727); assay: Competition of phosphopeptides with p85 for association with immobilized recombinant HGF/SF receptor (in vitro kinase assay readout); design: species or system human; conditions: phosphopeptide 10 μM; p85 from Sf9 lysates; FIG. 1
T1 construct: made in house; host or cells: Sf9 insect cells (baculovirus), for both p85 and the receptor
Procedure: FIG. 1. Inhibition of binding of p85 to HGF/SF receptor by tyrosine-phosphorylated peptides. Recombinant HGF/SF receptor was purified by immunoprecipitation from baculovirus-infected Sf9 cells using a rabbit polyclonal antiserum and phosphorylated with cold ATP. Lysates of Sf9 cells expressing p85 were pre-incubated with each of the phosphopeptides (10 μM). The lysates were then allowed to associate with immobilized recombinant HGF/SF receptors. Following association the complex was washed and receptor-bound p85 was detected by an in vitro kinase assay, as described in Materials and Methods of Example 4. The phosphopeptides are identified by the number of the amino terminal tyrosine.
FIG. 2. Inhibition of binding of p85 to HGF/SF receptor with different concentrations of tyrosine-phosphorylated peptides. The phosphopeptides which efficiently out-competed p85 binding to the HGF/SF receptor (FIG. 1) were used at increasing concentrations (10 nM, 100 nM, 1 μM from left to right) to define their relative affinities for p85. Conditions of the experiment were as in FIG. 1. Phosphopeptide 1365 was used as a negative control for p85 interaction.
In vitro association experiments. Sf9 cells expressing the recombinant HGF/SF receptor (approximately 4×10^6 cells/point) were lysed 36 hours after infection in buffer A (10 mM Tris-HCl buffer pH 7.5, 10% glycerol, 1% Triton X-100, 150 mM NaCl, 5 mM EDTA), supplemented with 0.2 mM phenyl-methylsulfonyl fluoride, 1 μg/ml leupeptin, 0.1 TIU/ml aprotinin and 1 μg/ml pepstatin. Lysates were clarified at 15,000×g at 4° C. for 15 minutes and the supernatants immunoprecipitated after 2 hours incubation with anti-Met antibodies coupled to Protein A-Sepharose. Immunocomplexes were washed three times with buffer A, once with buffer B (10 mM Tris-HCl pH 7.4, 100 mM NaCl, 1 mM EDTA) and once with buffer C (25 mM 4-(2-hydroxyethyl)-1-piperazine-ethanesulfonic acid (HEPES) buffer pH 7.2, 100 mM NaCl, 5 mM MgCl2). Samples were pre-phosphorylated by incubation for 15 minutes at 25° C. in buffer C with 10 μM unlabelled ATP and then washed three times with cold buffer A supplemented with 1 mM sodium ortho-vanadate. Association between the immobilized receptor and the baculovirus-expressed p85 was carried out as previously described (Bardelli, A., et al., Oncogene 7: 1973-1978 (1992)). For the association experiments with the PI 3-kinase holoenzyme three days serum-starved A549 cells (approx. 2×10^6 cells/point) were used as a source of PI 3-kinase. A549 cells were Dounce-homogenized in MOPS buffer (20 mM 3-(N-morpholino)propanesulfonic acid) (pH 7.5), 1 mM MgCl2, 0.1 mM EDTA, 200 mM sucrose, 1 mM sodium ortho-vanadate), supplemented with 0.2 mM phenylmethylsulfonyl fluoride, 1 μg/ml leupeptin, 0.1 TIU/ml aprotinin and 1 μg/ml pepstatin. Homogenates were centrifuged at 100,000×g for 20 minutes at 4° C. When checking for the ability of phosphopeptides to block the association with the receptor, cell lysates were pre-incubated with the phosphopeptides for 1 hour at 4° C. prior to incubation with the immobilized recombinant HGF/SF receptor. Following association, immunocomplexes were washed three times with buffer A, twice with buffer D (0.5M LiCl, 100 mM Tris-HCl pH 7.6), and twice with buffer B.
The presence of the p85 subunit of the PI 3-kinase in the receptor immunoprecipitate was determined by: i) labelling of the receptor and associated proteins with [γ-^32 P]ATP by in vitro kinase assay; ii) Western immunoblotting; iii) PI 3-kinase activity assay.
In vitro kinase assay. Receptor-associated proteins were labelled in 20 μl of buffer C, in the presence of 10 μCi [γ-^32 P]ATP (specific activity 7,000 Ci/Mm; Amersham) at 25° C. for 15 minutes. The reaction was stopped by adding 1 ml of ice-cold Buffer A without protease inhibitors. Samples were washed three times with cold buffer A. The labelled immunocomplexes were eluted from Protein A-Sepharose in boiling Laemmli buffer. […]

GST-SH2 domain of Shc = target: T2, GST-SH2 domain of Shc (Homo sapiens, UniProt P29353); assay: BIAcore binding of Shc SH2 domain to immobilised phosphopeptides; conditions: biosensor; for Affinity constant, ratio between dissociation rate (Kdiss) and association rate constants (Kass): Shc GST-SH2; for Binding of Shc SH2 domain to immobilised phosphopeptide: avidin-immobilized biotinylated phosphopeptide
T2 construct: using the Shc SH2 domain, expressed in bacteria as a GST-fusion protein; made in house; host or cells: bacteria
T2 sequence (P29353 488-579 limits assumed): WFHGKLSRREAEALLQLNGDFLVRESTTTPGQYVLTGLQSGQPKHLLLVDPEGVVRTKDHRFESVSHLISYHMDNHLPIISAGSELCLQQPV
Procedure: FIG. 13. […] The same concentration of Shc-SH2 was injected over two biosensor surfaces on which two phosphopeptides had been immobilised. Y1356P is derived from the sequence VNATY^1356 VNVK (SEQ. ID NO: 28) of the receptor tail; Y317P is derived from the sequence DDPSY^317 VNVQ (SEQ. ID NO: 27). Note that both peptides contain the same core (YVNV) but (SEQ. ID NO: 3) different upstream sequences. The initial rapid increase in the response is due to the "bulk effect" of the injected solution.
In vitro binding studies using GST-fusion protein. The region of the Grb2 cDNA corresponding to its SH2 domain (from nucleotide position 256 to nucleotide position 551) was isolated using polymerase chain reaction (PCR) and cloned into the BamHI-EcoRI sites of the bacterial expression plasmid pGEX-2T (GST-Grb2). Cultures of bacteria expressing GST, GST-Grb2 or GST-Shc (Segatto et al., Oncogene 2105-2112 (1993)) were grown for 3-4 hours at 37° C. in LB medium containing 1 mM IPTG. Bacteria were centrifuged, resuspended in 1/100 volume of ice-cold PY buffer, without Triton™ and lysed by sonication. After adding Triton X-100 to 1%, lysates were clarified by centrifugation. Recombinant proteins were purified onto glutathione Sepharose™ (Pharmacia) and used as such for binding assays. For each reaction, about 5 μg of GST, GST-Grb2 or GST-Shc bound to glutathione Seharose was incubated for 2 hrs. at 4° C. with […] of appropriate cell lysate made in PY buffer. Protein complexes were washed 5 times in ice cold PY buffer, eluted and denatured by heating at 95° C. for 3 min in Laemmli buffer, resolved on SDS-PAGE and analyzed by immunoblot.
The basic principles of operation as well as the methodology for obtaining kinetic measurements of SH2 domain interactions using the BIAcore instrument (Pharmacia) have been previously described in detail (Panayotou et al., Mol. Cell. Biol. 13: 3567-3576 (1993), Ponzetto et al., Mol. Cell. Biol. 13: 4600-4608 (1993)). Purified GST-SH2 domains or intact proteins were desalted in BIAcore running buffer (20 mM Hepes, pH 7.4, 150 mM NaCl, 3.4 mM EDTA, 0.005% Tween 20 and 4 mM DTT) and injected over avidin-immobilized, biotinylated phosphopeptides. The amount of phosphopeptides immobilized was normalized by measuring the binding of anti-phosphotyrosine antibodies. Association was measured over a range of protein concentrations and dissociation of bound material was allowed to occur either in buffer flow or upon injection of 20 μM competing, non-biotinylated phosphopetide. Peptide and protein concentrations were calculated by amino acid analysis on an Applied Biosystem amino acid analyzer.
The direct interaction between the SH2 domain of Shc and phosphotyrosine Y^1349 or Y^1356 was confirmed by real-time Biosensor analysis (Panayotou et al., ibid; Felder et al., Mol. Cell. Biol. 13: 1449-1455 (1993)).
The Shc sequence Y^317 VNV (SEQ. ID NO: 3) is identical to one of the two Shc binding sites present in the SF/HGF receptor (FIG. 8). […] The biosensor was used to compare binding of the Shc SH2 domain to the phosphopeptide DDPSY^317 VNVQ (SEQ. ID NO: 27), present on the Shc molecule, and to the phosphopeptide VNATY^1356 VNVK (SEQ. ID NO: 28), present on the SF/HGF receptor. […] Thus Shc-Shc association is not favoured in vivo, and the Shc phosphotyrosine residue Y^317 is available to bind other molecules, rather than to mediate the formation of concatamers.

T1 sequence (P23727 whole entry): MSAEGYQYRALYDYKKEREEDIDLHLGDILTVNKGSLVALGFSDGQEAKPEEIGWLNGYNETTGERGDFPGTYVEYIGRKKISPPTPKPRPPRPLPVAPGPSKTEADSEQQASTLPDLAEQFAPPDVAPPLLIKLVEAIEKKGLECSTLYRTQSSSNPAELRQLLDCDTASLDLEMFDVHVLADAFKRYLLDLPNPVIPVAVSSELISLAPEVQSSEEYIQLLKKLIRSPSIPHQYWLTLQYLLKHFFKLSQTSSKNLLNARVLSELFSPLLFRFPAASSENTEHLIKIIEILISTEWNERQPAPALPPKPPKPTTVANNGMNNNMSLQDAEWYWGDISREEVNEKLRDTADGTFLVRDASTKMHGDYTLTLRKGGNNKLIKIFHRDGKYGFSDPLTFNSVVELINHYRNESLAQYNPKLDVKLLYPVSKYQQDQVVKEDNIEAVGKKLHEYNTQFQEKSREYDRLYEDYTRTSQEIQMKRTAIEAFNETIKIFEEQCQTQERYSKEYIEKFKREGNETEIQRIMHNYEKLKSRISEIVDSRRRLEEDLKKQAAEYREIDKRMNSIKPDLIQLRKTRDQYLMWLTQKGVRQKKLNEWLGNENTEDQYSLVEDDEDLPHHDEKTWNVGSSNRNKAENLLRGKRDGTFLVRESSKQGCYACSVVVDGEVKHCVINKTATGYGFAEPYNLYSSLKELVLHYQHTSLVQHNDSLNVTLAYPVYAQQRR

Compound | Inhibition of binding of p85 to HGF/SF receptor [1] | Affinity constant, ratio between dissociation rate (Kdiss) and association rate constants (Kass) (GST-SH2 domain of Shc) | Binding of Shc SH2 domain to immobilised phosphopeptide (GST-SH2 domain of Shc) | Binding of Shc SH2 domain to immobilised phosphopeptide (GST-SH2 domain of Shc; listed as Y1356P)
CC(C)C[C@H](NC(=O)[C@@H]1CCCN1C(=O)[C@H](CC(=O)O)NC(=O)[C@@H]1CCCN1C(=O)[C@H](CS)NC(=O)[C@@H](N)Cc1ccc(OP(=O)(O)O)cc1)C(=O)N[C@@H](Cc1ccc(O)cc1)C(=O)N[C@@H](CCC(=O)O)C(=O)O [H-Tyr*-Cys-Pro-Asp-Pro-Leu-Tyr-Glu-OH] (HELM PEPTIDE1{[N[C@@H](Cc1ccc(OP(=O)(O)O)cc1)C(=O)[*:2]].C.P.D.P.L.Y.E}$$$$V2.0) | only partially effective |  |  | 
H-Ile-Gly-Glu-His-Tyr*-Val-His-Val-Asn-OH (H-IGEHYVHVN-OH; not fully specified (residue 5); also: Tyr5 (Y*) may be phosphorylated or unphosphorylated, not settled) [IGEHY^1349* VHVN] |  | too high to be exactly determined |  | 
H-Val-Asn-Ala-Thr-Tyr*-Val-Asn-Val-Lys-OH (H-VNATYVNVK-OH; not fully specified (residue 5); also: Tyr5 (Y*) may be phosphorylated or unphosphorylated, not settled) [VNATY^1356* VNVK] |  | too high to be exactly determined | specifically bound | binds to the docking site of the SF/HGF receptor

Source: patent publication US5912183A, “Peptide inhibitors of mitogenesis and motogenesis” (Pharmacia & Upjohn S.p.A., priority 1993, dated 1999)
